3 molecules from patent US8663642B2, “Anti-CD70 antibody-drug conjugates and their use for the treatment and prevention of cancer and immune disorders” (priority 2003, dated 2014) can be followed below.

For one data set, the system named is CD70^− Jurkat cells. Nature of the data set: 3H-TdR proliferation assay, hematologic lines. Type of data set: cell-based, human. Conditions: at concentrations as high as 2 μg/ml. As for the experimental part:
(§1) FIG. 5: Effects of anti-CD70 ADCs on the proliferation of transformed hematologic cell lines. A subset of the CD70^+ cell lines shown in FIG. 4 and the CD70^− Jurkat cell line were tested for their sensitivity toward 1F6 ADCs. Graded doses of the 1F6-vcMMAE, 1F6-vcAFP, or the corresponding non-binding control IgG (IgG) ADCs were added to cells at the initiation of culture. Cells were exposed to the ADCs continuously for a total of 96 hours. Proliferation was determined by pulsing with ^3H-TdR during the last 16 hours of incubation. The upper panels show the response of the WSU-NHL and Jurkat lines. The lower panel summaries the responses by the tested cell lines to 1F6-vcMMAE and 1F6-vcAFP in form of IC50s.
(§2) A subset of the CD70^+ hematologic lines listed in FIG. 4 was tested for sensitivity to the 1F6 ADCs. These lines were seeded at 5,000 cells per well in 96-well plates in quadruplicates in a total of 200 μl of culture medium containing graded doses of the ADCs as indicated in the FIG. 5 and the accompanying figure legend. Proliferation assays were carried out for 96 hours. Tritiated thymidine (^3H-TdR) incorporation during the last 16 hours of incubation was used to assess DNA synthesis. The responses of a CD70^+ B lymphoma cell line WSU-NHL and the CD70^− Jurkat cells are shown in the upper panels of FIG. 5. […] Proliferation inhibitory effects were apparent when the ADCs were used at concentrations higher than 0.005 μg/ml. […] On the other hand, proliferation of the CD70^− Jurkat acute T leukemia cell line was not affected by either 1F6-vcMMAE or 1F6-vcAFP at concentrations as high as 2 μg/ml. […] The responses of other CD70^+ cell lines tested are summarized in the lower panel of FIG. 5. […] Moreover, EBV-LCLs are phenotypically very similar to activated normal B cells.

The subject of a further data set is WSU-NHL cells. In words: 3H-TdR proliferation assay, hematologic lines. Type of data set: cell-based, human. Conditions: 96 hours, 3H-TdR last 16 hours. The method, then:
as §1, §2

A further data set deals with Caki-1 cells. In words: 3H-TdR proliferation assay, RCC lines. The data set is classed as cell-based, human. The note with it: Caki-1 cells.
In another data set the test system is Caki-2 cells. In words: 3H-TdR proliferation assay, RCC lines. The data set is classed as cell-based, human.
The subject of data set [1] is CD70^+ RCC lines. In words: 3H-TdR proliferation assay, panel of RCC lines. Type of data set: cell-based, human.
A further data set relates to CD70^− Hs 835.T cells. Nature of the data set: 3H-TdR proliferation assay, CD70-negative RCC line. The note with it: CD70^− Hs 835.T cells. Type of data set: cell-based, human.
In data set [2] the test system is normal kidney epithelial lines RPTEC and HRCE. Nature of the data set: Proliferation/cytotoxicity on normal kidney epithelial lines. Type of data set: cell-based, human.
Data set [3] concerns PBMCs stimulated with irradiated allogeneic CESS cells. In words: Mixed lymphocyte reaction (3H-TdR). The note with it: MLR, 5-day culture. Type of data set: cell-based, human.
The test system of data set [4] is CD70^+ CD8^+/Vβ17^+ T cells. Nature of the data set: In vitro deletion of M1 peptide-specific T cells (flow cytometry, viable counts). The data set is classed as cell-based, human. The method, then: PBMCs from a normal HLA-A0201donor were stimulated with the M1 peptide for 5 days. 1F6 ADCs or control non-binding IgG (cIgG) ADCs were added to cells to a final concentration of 1 μg/ml. Total viable cell counts were conducted at 24, 48, and 76 hours post drug addition. Total numbers of CD8^+/Vβ17^+ for each culture condition are calculated (upper panel).
FIG. 19: Dose-response comparison of anti-CD70 ADCs on deletion of antigen-specific CD8^+/Vβ17^+ cells. PBMCs from a normal HLA-A0201donor were stimulated with the M1 peptide for 5 days. 1F6 ADCs or control non-binding IgG (cIgG) ADCs were given to cells to the specified final concentrations. The percentages of CD8^+/Vβ17^+ cells 4 days post ADC addition was determined by flow cytometry as in FIG. 17.
To examine CD70 expression on activated antigen-specific T cells, PBMCs from a normal donor expressing HLA-A0201 were stimulated with the M1 peptide. PBMCs were seeded at 2×10^6 cells/ml with 5 μg/ml of M1 peptide in AIMV medium supplemented with 5% human AB serum. IL-2 (Proleukin, Chiron) and IL-15 (R&D Systems, MN) were added to final concentrations of 20 IU/ml and 5 ng/ml, respectively, once every two days beginning on day 2 after culture initiation. The expansion of CD8^+/Vβ17^+ T cells and induction of CD70 on the CD8^+/Vβ17^+ was followed by three-color flow cytometry. Vβ17^+ T cells were identified by the anti-TCRVβ17 mAb clone E17.5F3 (Beckman Coulter, Miami, Fla.).
PBMCs from a normal donor expressing HLA-A0201 were stimulated with the M1 peptide as described in Example 11. On day 5, cells were harvested, washed, and re-seeded at 0.5-1×10^6 cells/ml (approximately 100,000 of CD8^+/Vβ17^+ T cells) in fresh AIMV medium supplemented with 5% human AB, 20 IU/ml of IL-2, and 5 ng/ml of IL-15. 1F6 or control non-binding IgG (cIgG) ADCs were added to some cultures to a final concentration of 1 μg/ml. Total viable cell counts were conducted 24, 48, and 76 hours after ADC addition. Two-color flow cytometry was conducted to determine the percentages of CD8^+/Vβ17^+ cells among the viable cells. The absolute number of CD8^+/Vβ17^+ T cells in each culture was then calculated. […] The effects of 1F6 ADCs on the CD8^+/Vβ17^− cells were also evaluated.
The potency of three 1F6 ADCs was then compared. HLA-A0201 PBMCs were stimulated with the M1 peptide and re-seeded as described for FIG. 18 with the various ADCs at the indicated concentrations (FIG. 19). The percent of CD8^+/Vβ17^+ T cells after a 96-hour incubation was determined.
On the technique in general: Flow cytometry measures light scatter and fluorescence of single cells or particles in a stream.

The test system of a further data set is Caki-1 tumors. Nature of the data set: Caki-1 subcutaneous xenograft model of RCC. The data set is classed as in vivo, nude mice. The note with it: Caki-1 xenograft, q4d×4. An excerpt: Tumors were initiated in nude mice by implanting tissue tumor blocks (30 mm^3 in size) containing Caki-1 cells. Treatment began when average tumor size within a treatment group was around 100 mm^3. In the upper panel, treatment for the IgG and 1F6 groups began 17 days post implantation (filled arrow), while treatment for the 1F6-vcAFP and IgG-vcAFP groups began 25 days post implantation (open arrow). Indicated doses of either unconjugated mAbs or their ADCs were given for one course on a q4d×4 schedule.
Using xenografts of the Caki-1 line in nude mice, the […] antitumor activity of 1F6-vcAFP was tested. To establish Caki-1 tumors, nude mice were injected subcutaneously with 5×10^6 Caki-1 cells in 0.2 ml PBS. […] Caki-1-containing tumors were excised from tumor bearing mice and tumor tissue blocks of approximately 30 mm^3 were prepared. Naive nude mice to be used for evaluating in vivo antitumor activity of anti-CD70 ADC were each implanted subcutaneously with one tumor block of 30 mm^3. […] Treatment was initiated when the average tumor size within a group was approximately 100 mm^3 (FIG. 12, arrows).

Data set [5] concerns tetanus toxoid-specific T cells. The data set is classed as cell-based, human.
Data set [6] concerns CD70^+ RCC lines. Conditions: in 5 of 7 CD70^+ RCC lines tested. The method, then:
To examine the responses of CD70^+ RCC lines to 1F6 ADCs, cells were seeded between 1,000 to 3,000 cells per well in 100 μl of medium. An additional 100 μl of culture medium containing graded doses of ADCs were added to the wells after cells were allowed to attached overnight. In addition to DNA synthesis, cell viability, as a reflection of the cytotoxic activities of ADCs, was also assayed by the reduction of alamarBlue™ (Biosource International, Camarillo, Calif.). The alamarBlue™ dye was added at a one to four dilution during the last 4 to 24 hours of the incubation. Dye reduction was assessed by fluorescence spectrometry using the excitation and emission wavelengths of 535 nm and 590 nm, respectively. For analysis, the amount of ^3H-TdR incorporated or the extent of alamarBlue™ reduction by the treated cells was compared to that of the untreated control cells.

The test system of another data set is Vβ17^− T cells. Nature of the data set: Anti-CD3 plus anti-CD28 re-stimulation assay of bystander T cells (3H-TdR). The data set is classed as cell-based, human. The note with it: Vβ17^− T cells from culture treated with 1 μg/ml, 96 hours, no exogenous IL-2. An excerpt:
PBMCs from a normal HLA-A0201donor were stimulated with the M1 peptide for 5 days.

B1: 1F6-vcMMAE: anti-CD70 mAb 1F6 linked to monomethyl auristatin E by the valine-citrulline (vc) dipeptide linker (conjugate)
VH: QIQLVQSGPEVKKPGETVKISCKASGYTFTNYGMNWVKQAPGKGLKWMGWINTYTGEPTYADAFKGRFAFSLETSASTAYLQINNLKNEDTATYFCARDYGDYGMDYWGQGTSVTVSS
VL: DIVLTQSPASLAVSLGQRATISCRASKSVSTSGYSFMHWYQQKPGQPPKLLIYLASNLESGVPARFSGSGSGTDFTLNIHPVEEEDAATYYCQHSREVPWTFGGGTKLEIKR
modifications: non-natural residues
notes: anti-CD70 mAb 1F6 linked to monomethyl auristatin E by the valine-citrulline (vc) dipeptide linker
Consider B1, for which the “effect on proliferation of Jurkat cells” value with CD70^− Jurkat cells is “not affected”. Besides, in the data set on WSU-NHL cells, the “effect on the proliferation of WSU-NHL cells” value is “dose-dependent inhibitory effects”. The “IC50, proliferation” value in the data set with Caki-1 cells and with Caki-2 cells was “lower than 20 ng/ml” each time. Besides, the activity on proliferation result in the data set with CD70^+ RCC lines [1] (other CD70^+ RCC lines (not Caki-1, Caki-2)) was “not active”; with CD70^− Hs 835.T cells, “not active”; in data set [2], “not active”. Moreover, the “effect on T cell proliferation” value in data set [3] is “substantially inhibited T cell proliferation”. Also, the “number of CD8^+/Vβ17^+ T cells” value in data set [4] (1 μg/ml, 76 hours after ADC addition) is on record as “approximately 400,000”. For the same molecule, in data set [4] (96-hour incubation), the “inhibition of CD8^+/Vβ17^+ T cell expansion” value is listed as “dose-dependent inhibition”. For the same molecule, the relative inhibitory activity result in data set [4] (96-hour incubation) was “weaker than both 1F6-vcAFP and 1F6-vcMMAF”.

B2: 1F6: anti-human CD70 monoclonal antibody obtained from the Central Laboratory of the Netherlands Red Cross Blood Transfusion Service (antibody, V domains shown)
VH: QIQLVQSGPEVKKPGETVKISCKASGYTFTNYGMNWVKQAPGKGLKWMGWINTYTGEPTYADAFKGRFAFSLETSASTAYLQINNLKNEDTATYFCARDYGDYGMDYWGQGTSVTVSS
VL: DIVLTQSPASLAVSLGQRATISCRASKSVSTSGYSFMHWYQQKPGQPPKLLIYLASNLESGVPARFSGSGSGTDFTLNIHPVEEEDAATYYCQHSREVPWTFGGGTKLEIKR
modifications: Mature 1F6 Heavy Chain Variable region from Figure 1; Mature 1F6 Light Chain Variable Region from Figure 1
notes: anti-human CD70 monoclonal antibody obtained from the Central Laboratory of the Netherlands Red Cross Blood Transfusion Service
B2: the “therapeutic activity / tumor growth” value in the data set on Caki-1 tumors was “Very little therapeutic activity”. Moreover, the “effect on tetanus toxoid-induced T cell proliferation” value in [5] is given as “did not show a significant effect”.

B3: 1F6-vcMMAF: anti-CD70 mAb 1F6 linked to monomethyl auristatin phenylalanine by the valine-citrulline (vc) dipeptide linker (conjugate)
VH: QIQLVQSGPEVKKPGETVKISCKASGYTFTNYGMNWVKQAPGKGLKWMGWINTYTGEPTYADAFKGRFAFSLETSASTAYLQINNLKNEDTATYFCARDYGDYGMDYWGQGTSVTVSS
VL: DIVLTQSPASLAVSLGQRATISCRASKSVSTSGYSFMHWYQQKPGQPPKLLIYLASNLESGVPARFSGSGSGTDFTLNIHPVEEEDAATYYCQHSREVPWTFGGGTKLEIKR
modifications: non-natural residues
notes: anti-CD70 mAb 1F6 linked to monomethyl auristatin phenylalanine by the valine-citrulline (vc) dipeptide linker
As to B3, in the data set with CD70^+ RCC lines [1] (CD70^+ RCC lines tested), the “IC50 values for proliferation inhibition” value is “lower than 30 ng/ml”. In the data set on CD70^+ RCC lines [6], the “IC50 values to induce cytotoxicity” value is “lower than 30 ng/ml”. Besides, the “CD8^+/Vβ17^+ T cells in the culture” value in data set [4] (1 μg/ml added on day 5, 4 days, untreated 47%) came out at 14%. The “inhibition of CD8^+/Vβ17^+ T cell expansion” value in [4] (96-hour incubation) is listed as “dose-dependent inhibition”. Moreover, in the data set on Vβ17^− T cells, the “response to anti-CD3 plus anti-CD28 re-stimulation” value is recorded as “comparable to that of the untreated cells”.
